Source: paper PMC9046454

B1: NC duplex (non-consensus) (dsDNA)
DNA 1: GTTCCAGGTTAAGAAGTGCTCTCAGGGTGGCGCGGC
DNA 2: GCCGCGCCACCCTGAGAGCACTTCTTAACCTGGAAC
B2: AP-1 duplex (dsDNA)
DNA 1: AGTGGAGATGACTCATCTCGTGC
DNA 2: GCACGAGATGAGTCATCTCCACT

Legend:
[1] = target: T1, nLuc-AFF (6*-50* duplication, 6-aa linker AAGASS) (UniProt P03069 226-281); experiment: luminescence switching
[2] = target: T1, nLuc-AFF (6*-50* duplication, 6-aa …); experiment: luminescence ratio L460/L520 titration
[3] = target: T1, nLuc-AFF (6*-50* duplication, 6-aa …); experiment: fluorescence anisotropy
[4] = target: T1, nLuc-AFF (6*-50* duplication, 6-aa …); experiment: luminescence ratio L460/L520 titration; remark: listed apart in the source

T1 sequence (P03069 226-281): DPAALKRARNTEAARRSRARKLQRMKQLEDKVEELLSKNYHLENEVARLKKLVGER

| Binder | binding result [1] | Kd [2] | Kd [3] | Kd [4] |
| --- | --- | --- | --- | --- |
| B1 | no binding | – | – | – |
| B2 | – | 37 ± 11 nM | 11.6 ± 2.5 nM | 14.3 ± 3.5 nM |
